According to patent publication US20160024487:

Columns and labels:
[1] = tested on: T1, Lys(Dnp)-ATNATX4X3PRIVGG-Lys(Abz), X4 = K, X3 = F
T1 sequence: KATNATKFPRIVGGK

[2] = tested on: T2, Lys(Dnp)-ATNATX4X3PRIVGG-Lys(Abz), X4 = N, X3 = Y
T2 sequence: KATNATNYPRIVGGK

[3] = tested on: T3, Lys(Dnp)-ATNATX4X3PRIVGG-Lys(Abz), X4 = P, X3 = E
T3 sequence: KATNATPEPRIVGGK

[4] = tested on: T4, Lys(Dnp)-ATNATX4X3PRIVGG-Lys(Abz), X4 = P, X3 = P
T4 sequence: KATNATPPPRIVGGK

[5] = tested on: T5, Lys(Dnp)-ATNATX4X3PRIVGG-Lys(Abz), X4 = S, X3 = H
T5 sequence: KATNATSHPRIVGGK

[6] = tested on: T6, Lys(Dnp)-ATNATX4X3PRIVGG-Lys(Abz), X4 = T, X3 = N
T6 sequence: KATNATTNPRIVGGK

[7] = tested on: T7, Lys(Dnp)-ATNATX4X3PRIVGG-Lys(Abz), X4 = Y, X3 = E
T7 sequence: KATNATYEPRIVGGK

In the case of Human plasma purified Factor Xa, the FXa kcat/KM [1] is reported as 35 M⁻¹ s⁻¹, the FXa kcat/KM [2] is reported as 15 M⁻¹ s⁻¹ and the FXa kcat/KM [3] is reported as 1000 M⁻¹ s⁻¹. For the same substance, the FXa kcat/KM [4] was 14 M⁻¹ s⁻¹, the FXa kcat/KM [5] was 24 M⁻¹ s⁻¹ and the FXa kcat/KM [6] was 13 M⁻¹ s⁻¹. For the same substance, the FXa kcat/KM [7] was 54 M⁻¹ s⁻¹.
